Results: US6916470

Biological target: human mpl (myeloproliferative leukemia receptor, TPO receptor) expressed on stably transfected BaF3 cells (human) (UniProt P40238)
Assay: cell-based or functional assay

proliferation of mpl-expressing BaF3 cells (activity of the supernatant): 300000 U/ml
Substance: human thrombopoietin (TPO), expressed in COS cells from cDNA cloned from human fetal liver; used as TPO-containing COS supernatant (from UniProt P40225 22-353) (ligand)
